Laboratory results: PMC4452343, “Monitoring β-arrestin recruitment via β-lactamase enzyme fragment complementation: purification of peptide E as a low-affinity ligand for mammalian bombesin receptors” (PLoS ONE, 2015)

Key:
[1] = target: neuromedin B receptor (human) (UniProt P28336)
[2] = target: human bombesin receptor subtype 3 (human) (UniProt P32247)
human bombesin receptor subtype 3 (human), sequence (P32247 whole entry): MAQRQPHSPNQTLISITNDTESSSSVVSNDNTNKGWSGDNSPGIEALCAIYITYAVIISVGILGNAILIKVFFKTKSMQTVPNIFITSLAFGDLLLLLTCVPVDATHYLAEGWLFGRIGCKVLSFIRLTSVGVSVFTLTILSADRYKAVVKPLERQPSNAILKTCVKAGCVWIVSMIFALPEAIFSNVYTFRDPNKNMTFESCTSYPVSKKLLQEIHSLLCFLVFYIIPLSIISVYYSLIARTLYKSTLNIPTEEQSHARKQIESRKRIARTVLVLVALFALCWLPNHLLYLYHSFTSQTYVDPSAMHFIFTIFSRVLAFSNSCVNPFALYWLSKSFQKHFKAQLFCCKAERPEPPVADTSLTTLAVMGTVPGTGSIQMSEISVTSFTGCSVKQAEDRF

neuromedin B receptor (human), sequence (P28336 whole entry): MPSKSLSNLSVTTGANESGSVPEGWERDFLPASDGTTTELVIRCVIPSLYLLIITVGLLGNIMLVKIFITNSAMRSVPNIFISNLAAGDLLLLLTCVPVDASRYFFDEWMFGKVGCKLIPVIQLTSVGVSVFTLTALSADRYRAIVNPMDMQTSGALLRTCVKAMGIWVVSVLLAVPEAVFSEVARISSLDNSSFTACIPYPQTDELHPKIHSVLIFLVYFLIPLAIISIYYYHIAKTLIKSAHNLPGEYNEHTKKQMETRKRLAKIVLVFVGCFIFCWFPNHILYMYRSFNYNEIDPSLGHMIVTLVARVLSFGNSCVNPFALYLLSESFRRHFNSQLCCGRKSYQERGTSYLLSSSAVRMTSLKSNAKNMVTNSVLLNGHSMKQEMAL

Row | EC50 of NFAT-luciferase reporter activation in CHO cells expressing hNMBR [1] [nM] | EC50 of NFAT-luciferase reporter activation in CHO cells expressing hBRS3 [2] [nM] | Substance
1 | 0.16 |  | neuromedin B (peptide)
2 |  | 8.8 | [D-Phe^6, ß-Ala^11, Phe^13, Nle^14]-Bombesin (6–14) (peptide)
